The values that follow are results of earlier work, collected in article PMC2879597.

One may read the Kd as the concentration at which binding is half-saturated.

In the data set the target is hIL-10/sIL-10R1 complex (Homo sapiens) (UniProt P22301).
Chain of hIL-10/sIL-10R1 complex (Homo sapiens) (P22301 19-178, chain 1 of 2): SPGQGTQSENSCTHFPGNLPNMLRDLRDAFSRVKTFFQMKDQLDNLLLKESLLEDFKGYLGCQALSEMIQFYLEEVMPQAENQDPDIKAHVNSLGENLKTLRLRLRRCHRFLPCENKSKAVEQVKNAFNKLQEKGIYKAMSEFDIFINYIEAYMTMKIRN
Chain of hIL-10/sIL-10R1 complex (Homo sapiens) (Q13651 22-235, chain 2 of 2, further chain): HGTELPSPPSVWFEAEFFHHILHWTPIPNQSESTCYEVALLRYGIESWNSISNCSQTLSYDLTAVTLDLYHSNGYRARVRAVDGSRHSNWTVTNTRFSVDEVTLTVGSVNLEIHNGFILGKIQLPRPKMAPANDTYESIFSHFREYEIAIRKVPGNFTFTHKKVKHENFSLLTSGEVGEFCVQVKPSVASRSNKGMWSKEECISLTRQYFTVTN

Chain of sIL-10R2 ECD (Q08334 20-220): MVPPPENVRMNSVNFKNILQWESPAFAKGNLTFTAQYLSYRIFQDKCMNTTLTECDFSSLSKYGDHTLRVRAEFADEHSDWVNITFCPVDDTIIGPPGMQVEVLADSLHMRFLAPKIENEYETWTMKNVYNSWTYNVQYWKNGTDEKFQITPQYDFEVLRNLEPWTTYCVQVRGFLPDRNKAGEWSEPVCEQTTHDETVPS

With sIL-10R2 ECD (from UniProt Q08334), the Kd was 250 µM.
